± gives the uncertainty stated by the source.
Assay: protein stability index of a GFP-peptide fusion (yeast GPS) (PSI 1-4); higher = more stable; sorted into four equal gates, so the index is relative within each strain
Settings: pdr5∆
Method in brief: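 Tiled 17-residue peptides from yeast proteins were fused downstream of GFP on a plasmid that also expresses Cherry, and the pooled library was carried in yeast. Mid-log cultures grown in leucine-free medium were sorted into four equal gates by GFP/Cherry fluorescence ratio. Plasmids from each gate were PCR-amplified and Illumina-sequenced, and reads were assigned to strains by barcodes. Each peptide's protein stability index is the sum, over gates, of the gate's read frequency multiplied by its gate number.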

Sequence | protein stability index
REQSSNDSETHTEDEST [BRN1] | 3.43 ± 0.27

Same assay, conditions: san1∆

Sequence | protein stability index
QKLPQYIIQGSNTNDNI [RGR1] | 2.48 ± 0.18
QKLWLLECQLFPQGLNI [SSN8] | 1.66 ± 0.13
QKMAELEAARSEKQNDE [PRP8] | 2.23 ± 0.26
QKNFMDQFQWILRKPGK [RRI2] | 2.67 ± 0.15
QKQWDDIAFVLNNLPYK [YCS4] | 2.97 ± 0.11
QKYWESMRIQILRRQAI [GAL11] | 1.65 ± 0.16
QLAQIRQFLKANKTNLI [YML103C/NUP188] | 2.86 ± 0.049
QLELRQLNASISLIPEL [RRI2] | 2.42 ± 0.063
QLFRTNKVQIMIATNVA [PRP28] | 1.48 ± 0.081
QLGYIENSFYKKEASKT [POP1] | 2.43 ± 0.056
QLIGSNIELHSLYTSRE [PUP1] | 3.34 ± 0.26
QLIKVAVHNGGRKHVAA [RPL9A] | 2.66 ± 0.097
QLKIQNRQAAASVVPSA [RPL12A] | 2.05 ± 0.051
QLKNVQLDSYLVNGFSQ [MED2] | 2.24 ± 0.11
QLNASISLIPELSVVLS [RRI2] | 2.98 ± 0.044
QLQQQPQMQCALQNLSQ [YGL172W/NUP49] | 2.42 ± 0.11
QLRKEIQLLDENVGTRL [MED11] | 3.57 ± 0.11
QLSNWQKIRNSEGISEA [ITC1] | 2.97 ± 0.065
QLYFKKKVNYKVTSYDI [ISW2] | 2.7 ± 0.07
QMLIQGVWDVDNPLRQI [BRR2] | 3.47 ± 0.091
QMQQQQQAQAQAQAQAQ [GAL11] | 2.19 ± 0.059
QNDILQESFINTMSAWV [FAS2] | 2.55 ± 0.074
QNIAQSSNQSAPVETKK [HRT1] | 3.47 ± 0.15
QNNSTGSSSIIYYDSYI [SSN2] | 2.79 ± 0.056
QNRPYNHPELQGITRNV [RPC17] | 2.03 ± 0.087
QNSANNNSDDEDVDDEE [IRR1] | 3.62 ± 0.087

Sequence | protein stability index
QNSLLTNTHPNFLSKIR [SNF2] | 3.01 ± 0.07
QPSQQPQQAQQQPNPLH [GAL11] | 2.85 ± 0.035
QPVNFNRSWDHAYNITF [RPO31] | 2.39 ± 0.12
QQMHEVRKELRGRAVVL [RPP0] | 3.27 ± 0.099
QQQQQFRHHVQIQQQQQ [SNF5] | 1.45 ± 0.086
QQQQQHQQQQQQQQQQQ [SNF5] | 2.94 ± 0.043
QQQQQQQQQQQQQQQQH [GAL11] | 2.698 ± 0.025
QQQQQQQQRRQLTPQQQ [GAL11] | 2.877 ± 0.02
QQQSSQNTVPNVLNQIN [GAL11] | 1.71 ± 0.078
QQRIVSAYEASMVYSNV [RRP4] | 2.62 ± 0.045
QQSNKLHCCIQLLMGDI [RPN3] | 2 ± 0.064
QQTEHETEIKDLTQLLE [SMC4] | 3.31 ± 0.045
QRARDQDSIDISIKDNK [GAL11] | 3.31 ± 0.086
QRCKSNAISLQLKYDTS [YIL149C/MLP2] | 1.86 ± 0.12
QRDFRKHGAVHLSTYLK [RPL21A] | 2.48 ± 0.054
QREDKLKSHYYQTCKNS [SMC2] | 1.63 ± 0.071
QREEAKKVVKKAFEERH [RPL27A] | 2.63 ± 0.29
QRETYDSNESDDDVTPS [YLR335W/NUP2] | 2.37 ± 0.15
QRITIPNVCNMKQYRDF [PRP28] | 2.07 ± 0.11
QRKTVNSDDILSLHENY [POP1] | 2.54 ± 0.068
QRQKTYVERFETQLKVV [SMC1] | 1.23 ± 0.2
QRRCLHCGALNGVVKKA [RPO31] | 2.41 ± 0.12
QRRVLLSAPLSKELRAQ [RPL26A] | 2.62 ± 0.08
QRSRRKFSERRKALPKE [DSN1] | 3.52 ± 0.099
QRTCLMTVTFLILAGQV [YCS4] | 1.27 ± 0.099
QRYQDLSQQQKDAQKKD [YIL149C/MLP2] | 2.79 ± 0.071

Sequence | protein stability index
QSFQNPFTASQSNINTN [YIL149C/MLP2] | 2.62 ± 0.053
QSNINTNAPLRTLNIQP [YIL149C/MLP2] | 1.99 ± 0.086
QSRLMSTSYHLNSTLES [MED6] | 1.97 ± 0.063
QSSGKLKEYLDLVARTA [YDL116W/NUP84] | 3.01 ± 0.099
QTENDLKDIEARIKEKA [RPT1] | 3.03 ± 0.099
QTFGVDILAKLFSLEKP [SWI1] | 2.58 ± 0.058
QTGIFVYQNNITPSAMK [RPB5] | 3.11 ± 0.075
QTLLANSDHAKFTIEPG [SNF2] | 2.41 ± 0.1
QTNIWEENWDDVEVDDD [SEM1] | 3.37 ± 0.082
QTQQDLPKVRYNVEKVK [NSL1] | 2.75 ± 0.054
QTTEGYDPKDALKNACN [RPB11] | 3.26 ± 0.082
QVDKVTKEKVNGASVPI [RPL26A] | 2.86 ± 0.097
QVLKCKESWDPNTTKTK [YGR119C/NUP57] | 3.63 ± 0.089
QVLVCTATLAWGVNLPA [BRR2] | 2.1 ± 0.089
QVMEEKLDENNAQLSCI [PUP2] | 2.86 ± 0.19
QVPSSLIVRAKNHTHNL [RRP4] | 2.67 ± 0.072
QVRKKQIETINFLRLPA [YDL116W/NUP84] | 2.86 ± 0.07
QWFLQYQNQFVEFCRNI [YML103C/NUP188] | 1.89 ± 0.17
QWGKYQTFGVDILAKLF [SWI1] | 2.43 ± 0.062
QYTKDEQFYTKDIIDPK [RPN2] | 2.78 ± 0.15
QYVTQIEQEKQEQQEQD [PRE6] | 2.85 ± 0.058
QYYLSVLNQQLPIESQF [BRR2] | 2.65 ± 0.055
QYYVTQHDKMVDKIFEK [SWI1] | 2.68 ± 0.068
RAASAKIESSVESQFSA [RPS8A] | 2.53 ± 0.13
RAGVCEYNEDSRLCTPI [RPN13] | 1.41 ± 0.2
RALRRALTKFEASQVTE [RPL35A] | 3.11 ± 0.097

Sequence | protein stability index
RANVYVGFLVQLDLTGI [PRP8] | 2.21 ± 0.057
RAQRVAEKRDALLKEDA [RPL19A] | 2.89 ± 0.14
RARVTKDLVEIKKEEGK [RPN5] | 3.33 ± 0.17
RASKLKIQASDVNIIGK [RPO31] | 2.7 ± 0.24
RATPATLTELKDALSNS [SRB2] | 3.15 ± 0.12
RAVKEIKKFAKLHMGTD [RPL31A] | 1.23 ± 0.061
RAVKEIKKFAKLHMGTE [RPL31B] | 3.08 ± 0.08
RAVLKSFLESVIRDSVT [HHF1] | 1.86 ± 0.063
RAYMRPLGVILTFVSVD [SCL1] | 2.05 ± 0.083
RCFENLQNKSFKSVLPI [UBP6] | 2.05 ± 0.12
RCKIYFFYLRISKKLQF [PCI8] | 1.19 ± 0.093
RDEIAKNTELSYDFLPL [RPN12] | 1.82 ± 0.079
RDHKSYSQSPPRSPGRS [SMC4] | 3.01 ± 0.17
RDLKPSNLEKLLFINSS [YML103C/NUP188] | 1.66 ± 0.13
REASKDNVDFILSNVDL [RPB3] | 3.38 ± 0.061
REGSSARTIKATLPYIK [RPB2] | 2.85 ± 0.061
REIQTAVRLILPGELAK [HTB1] | 2.55 ± 0.088
REKNSLESGKETALEFL [SMC4] | 3.07 ± 0.086
RELLKSQVEDFTRIFLP [SIR3] | 3.13 ± 0.053
REMALCRELHNKHLTTL [SSN3] | 1.87 ± 0.056
RENGKGGQIAHILFQNN [ROX3] | 2.75 ± 0.061
REPDFWVIRKQRRTNNS [MED6] | 2.97 ± 0.097
REPRVVSALQMLKQHLF [PUP1] | 3.02 ± 0.066

Reference: the supplement of paper PMC9732359
